Experimental data from article PMC6832383, “Co-Immobilization of Tri-Enzymes for the Conversion of Hydroxymethylfurfural to 2,5-Diformylfuran” (Molecules, 2019).

What was measured:
horseradish peroxidase = test system: T1, horseradish peroxidase; assay: spectrophotometric initial rates at […] nm (purpurogallin), non-linear Michaelis-Menten fit; assay type: biochemical, Armoracia rusticana; settings: free enzyme; co-substrate 10 mM H2O2; 100 mM phosphate pH 6.0; 30 °C; pyrogallol 1-8 mM
T1 construct: gene PRXC1A

COc1cccc(CO)c1 = assay: purified protein; settings: free enzyme, Tris-HCl 50 mM pH 7.1, 37 °C, substrate 3-60 mM

How did the Km (horseradish peroxidase) turn out when `Oc1cccc(O)c1O` [pyrogallol] was run?
Its Km is 2210 ± 40 µM.

“galactose oxidase (Fusarium graminearum)” was tested. Which Km (COc1cccc(CO)c1) did it give?
The Km was 17600 ± 1300 µM.

And the Vmax (COc1cccc(CO)c1)?
The Vmax was 216 µmol/min/mg.
